From the DeepSol protein solubility set

Experiment: soluble on expression in E. coli; label from the status in PepcDB or PDB records

| Sequence | soluble on expression in E. coli |
| --- | --- |
| MGSDKIHHHHHHMTWTDLKSSLAAEGYVASDDLAVALQLALSLGRPLLLEGAAGVGKTEIARTLSAVRDTRLIRLQCYEGLDAAQAIYEWNYQRQLLTIRAASEAGETGKAVEDRIFSRDFLLERPLLAAITQEMAPVLLIDEIDRADEEFEAYLLEILSDFQVSIPELGTITAVTRPMVVLTSNGTRDLSDALRRRCLYTYVEYPDRTAELAILKARCPDVEARLAEQIIGFVQRLREEELEKTPGVAEMLDFAAALMGLGIADLTDNPAVLQSTLTTLLKTQSDQAQITREVAGRIAVKAA | not soluble |
| MGSDKIHHHHHHVHKSLSNAFEGFSFSGDITTDVLGLLHHHGRQDVAKHVLAVAKTAQRLAPIYDVDSEAAYSAGLLHDISLIFSTSQMLQTALDLGLEPVTAEKRVPYLLHGKLSAAMAEIVFGVKNDSLVHAVSCHTTLCARATTLDKVVFLADKMSWDQEYSPFKPELETALEKSLDEAVGVFLTWTWKQKEKLNSIHPWLIDAWKDYKVGDYA | not soluble |
| MANEPQKSDDNGQAAEAVVTDDEIVLQDQQLKTIEDEQKSVPLVATLAPFSILCAEYDNETSAAFLSKATELSEVYGEIRYIRGDGNCFYRAILVGLIEIMLKDRARLEKFIASSRDWTRTLVELGFPDWTCTDFCDFFIEFLEKIHSGVHTEEAVYTILNDDGSANYILMFFRLITSAFLKQNSEEYAPFIDEGMTVAQYCEQEIEPMWKDADHLAINSLIKAAGTRVRIEYMDRTAAPNGGWHYDIPSDDQQIAPEITLLYRPGHYDVIYKKDSTEASEIEN | not soluble |
| SMSKRTFSTVLPQIDTTGQLFVQTRKGQEVLIKVKHFMKQHILPAEKEVTEFYVQNENSVDKWGKPLVIDKLKEMAKVEGLWNLFLPAVSGLSHVDYALIAEETGKCFFAPDVFNCQAPDTGNMEVLHLYGSEEQKKQWLEPLLQGNITSCFCMTEPDVASSDATNIECSIQRDEDSYVINGKKWWSSGAGNPKCKIAIVLGRTQNTSLSRHKQHSMILVPMNTPGVKIIRPLSVFGYTDNFHGGHFEIHFNQVRVPATNLILGEGRGFEISQGRLGPGRIHHCMRTVGLAERALQIMCERATQRIAFKKKLYAHEVVAHWIAESRIAIEKIRLLTLKAAHSMDTLGSAGAKKEIAMIKVAAPRAVSKIVDWAIQVCGGAGVSQDYPLANMYAITRVLRLADGPDEVHLSAIATMELRDQAKRLTAKI | soluble |
| SNAMTEEHVVLLDEQDKPSGTLEKYAAHTLNTPLHLAFSCWLFNEDGQLLVTRRSLSKKAWPGVWTNSVCGHPQQGETTEEAIIRRCRFELGVEITDLTPVYPHFSYRATDPNGIVENEVCPVFAARATSVLQVNSEEVMDYQWSEFKSVWKSLLATPWAFSPWMVMQASDEQARERLLNYCQR | soluble |
| GSASDNAAYWSIATTMRSDNKALGAVSDALGMGAAKVDTASAGMDAAIKVVTDIKAKVVAAKEQGVDKTKVQEEVSQLLDQLKSIGTSASFNGENWLVSSANATKTVVSGFVRDAGGTVSVKTTDYALDANSMLYTEGTPGTIDANSGILNATGATTTVGAKTYTQISVLDMNVGTDDLDNALYSVETALTKMTSAGAKLGSLSARIDLQSGFADKLSDTIEKGVGRLV | not soluble |
| MNRNRLPALTPGLAWSRPMNGAVDHKGYEQPTYDLEFAETATEIRRYGPYLVAEVTMAGDRSTAITRGFRVLARYIFGGNAESRRIEMTVPVSQLPAGEDLWTVRFTMPAVRSASLLPAPKDSRIRFVTVPPSRQAVRRFSGWPTDHALRRQAEGLAHWIAERGLPKREGPYFYFYDSPMTLPWQRRNEVAFGLGEGAAALEHHHHHH | not soluble |
| MAAKHVLFSTDARQKMLSGVNLLANAVKVTLGPKGRHVVLNKSYGAPTITKDGVSVAKEIELADKFENMGAQMLKQVASKANDEAGDGTTTATVLAQALINEGMKAVAAGMNPMDLKRGIDKAVSAAVEKLHQLAKPCSDTQSITQVGAISANSDHAIGEIIAQAMEKVGRNGVITVEEGQALQNELSVVEGMQFDRGYLSPYFINQPKAGCVELENPYVLLVDKKISHIRELLPILESVAKASRSLLIIAEDVDGDALATLVVNSMRGIIKVAAVKAPGFGEQRKAMLEDIAALTAGRVISEEIGLELEKVTLDDLGSAKKVTINKDNTTIVDGAAEPSALQDRIAQIQHQLEHTTSQYDRDKLQQRIAKLSGGVAVIKIGAATEVEMKEKKDRVDDALHATRAAVEEGIVAGGGVALLKIANELSNLQGDNDDQNVGIRIALRAMEEPLRQIAINAGDEASVIANQVKTGDEHYGYNAATGQFGNMLEMGILDPAKVTRSALQFAASIAGLMITTEAMVSEVDKESAA | not soluble |
| MGHHHHHHSHHRFSINGHFYNHKTSVFTPAYGSVTNVRINSTMTTPQVLKLLLNKFKIENSAEEFALYVVHTSGEKQKLKATDYPLIARILQGPCEQISKVFLMEKDQVEEVTYDVAQYIKFEMPVLKSFIQKLQEEEDREVKKLMRKYTVLRLMIRQRLEEIAETPATI | not soluble |
| MSLTQAQGAQQYVNINPPMPSDTPGKIEVLEFFAYTCPHCAAIEPMVEDWAKTAPQDVVLKQVPIAFNAGMKPLQQLYYTLQALERPDLHPKVFTAIHTERKRLFDKKAMGEWAASQGVDRAKFDSVFDSFSVQTQVQRASQLAEAAHIDGTPAFAVGGRYMTSPVLAGNDYAGALKVVDQLIVQSREGHHHHHH | soluble |
| MKEMTGLHSLVSIENFIKQHKFSFIYISRPGCTVCHAVLPQLRIVLDQFPNIKLGHINADDVAEVAGRFSVFTVPVLLLFIDGTEFLREARFVHFEQLEQKLKRVYRLYEGE | not soluble |
| MAKSRTIYVCAECGGTSLKWQGKCPHCSAWNTLEETVESAASSAGGHRYAPLAAASPVRSLSEIEARETPRQPTGLDEFDRVLGGGLVAGAVVLIGGDPGIGKSTLLLQALASLSATTKVLYVTGEESAEQVALRARRLGLQTGNVDLLAEIRLEAIQAAVSEQKPTVAVIDSIQTLYSGELTAAPGSVSQVRECAAQLTRLAKQTGIAIVMIGHVTKDGALAGPRVLEHIVDTVLYFEGDTHSSFRLVRAFKNRFGAVNELGVFAMTDRGLRGVANPSALFLSQHQQQVAGSCVLATQEGTRPLLVEVQALVDTSHAPNPRRLTVGLEGNRLAMLLAVMHRHAGVSTYDQDVFVNAVGGVRITEPAADLPVLLAIMSSLRDKPLPAGLVAFGEIGLAGEIRPAPRGQERLREAAKLGFSVALIPKANAPRQPIEGLEIWAVDRLDAALDKLRLEHHHHHH | not soluble |
| REEYYVWDKEASINFIKPGQSDLFAEFEITDGMLDEIYQMTRNGEKCFPEFITHVKDKQGNVVSEVQRKLYVRKKPQYREEEAVTEVP | not soluble |
| MGLIDVLKSFKSPSGREIRILLLGLDNAGKTTILKQLSSEDVQHVTPTKGFNVKTVAAMGDIRLNVWDIGGQRSIRPYWSNYYENIDTLIFVIDSNDKKRFDEMNIELGELLDEEKLRKVPVLIFANKQDLVTAASSEEITRKLNLDLLRDRTWHIQACSALKNEGINDGITWVASNLKPASKK | not soluble |
| MSLNCFISSYVRGNFYNRGRISAESLRASDDLIFLNVRPNKDGSLSFENPRIFENGKGVTSWEELIKSVRADVKGTKTKLRLGAASGEWKAMVADEAARVAFAKNIKKILEKNKLDGIDLDFEWAETEKEYEDYSLAILKMREVLGDKYVFSVSLHPVCYKISKEAIAAVDFISYQCYGPSPVRFPMEKYCSDIQMALAYGIPKEKLVAGVPFYGVTKDGSKKTEAYFSFVQDGLITGPAQNEVTYKGDVYVFDGQNNIRAKTRYAMDQQLKGMMSWDLATDMPLNDSRSLFKTMVEELGREGHHHHHH | soluble |
| ESEPQPEPCPGRAGAAARARWCPQPRPLVLLSLGALEFVSLSQQAFQICPVFVVCGLYQDGNSNKSFLLRSWCLHPEGTVCASSPERKDLPEALGNDPGTPGQRGLKLFGKAAGLLGKMAMAPSPSLVQVYTSPAAVAVWEWQDGLGTWHPYSATVCSFIEQQFVQQKGQRFGLGSLAHSIPLGQADPSLAPYIIDLPSWTQFRQDTGTMRAVRRHLFPQHSAPGRGVVWEWLSDDGSWTAYEASVCDYLEQQVARGNQLVDLAPLGYNYTVNYTTHTQTNKTSSFCRSVRRQAGPPYPVTTIIAPPGHTGVACSCHQCLSGSRTGPVSGRYRHSMTNLPAYPVPQHPPHRTASVFGTHQAFAPYNKPSLSGARSAPRLNTTNAWGAAPPSLGSQPLYRSSLSHLGPQHLPPGSSTSGAVSASLPSGPSSSPGSVPATVPMQMPKPSRVQQALAGMTSVLMSAIGLPVCLSRAPQPTSPPASRLASKSHGSVKRLRKMSVKEATPKPEPEPEQVIKNYTEELKVPPDEVCVLGPWLPLFLFGNNSTWKGHPPHLA | soluble |
| MFALIQRGQIYTDRAGYPVEITRSTEHSVFFRRMDGRTGRVRIGEFSSLFEHIDHLEYHKILAETEQEKHLKKLRAMQRK | not soluble |
| MKDLIIIGAGQAGLTMGYYLKQEGYNFLLLEAGKRVGDSWRNRYDSLQLFTPRSYSSLPGMALIGEKNEFPYKDEIATYLEEYARHFQLPVQLQTEVLKIKKEKEIFELHTPTEILQTKKVIIASGAFQQPFIPSVSANLSSHIFQIHSSQYKSPSQIPKGKVLVVGGGNSGMQIAVELAKTHEVTVSISHPLTFLPLQLFGKSIFNLLEKVGLLYAEINTKRGRWFQKRKDPIFGFEGKKLIRNGAIKLQEKVVSASRNNIMFQNGDTYSAESIIWSTGFVQNYNWIEIEQAVNEKGFPNHIKGISPVKGLYYIGLPWQSQRGSALICGVGKDAEYVLSEIKKIDQLEHHHHHH | soluble |
| GGTSNEVAQFLSKENQVIVRMRGLPFTATAEEVVAFFGQHCPITGGKEGILFVTYPDGRPTGDAFVLFACEEYAQNALRKHKDLLGKRYIELFRSTAAEVQQVLNRFSSA | soluble |
| SLNKKFSYPIPNFTDRRKSIIFWRYLRFQARKILYFPQVRLLEKTLNKEKNKHLKDFFSQRPYACYNATRRFCDKSFKANERVKTLIYDVDKGLACFKFLPEEQIIFSFDEDFELFLGYNYNVCEEGFWAFSLKFKKYTILQCNFCFTLENNLLLSCIQGHKYKDFNILEINKILTKKCHGLRPVALLIECSKMLCEILKLQTTLGVHEKNQIRSQKGKEKGYFVDYQKIWLENGGELIKINKHKYYKLHHSQKNLEEIPSQKRSMYKKRFAMLEEIKTNLDKTLSIQD | not soluble |
| MQTSAQKVIQDLTNRVQAEKEELEQLERERDLWKYNAQMNDKEALRGNERKKNIMKKGGPLCYFCNKNHVPSLCRTYPDGISRQKSLENQGKCIKCLKIGHQNGDNFCEKHHIVCRTCQQSHVKAVCPILYPKKDTPPKILRARRRSLIRAQKKKDFQEPENKHEQLTSTKAPCQENWSDF | not soluble |
| DLPIADVQGSLDTRHIAIDRVGIKAIRHPVVVADKGGGSQHTVAQFNMYVNLPHNFKGTHMSRFVEILNSHEREISVESFEEILRSMVSRLESDSGHIEMAFPYFINKSAPVSGVKSLLDYEVTFIGEIKHGNQYSFTMKVIVPVTSLCPCSKKISDYGAHNQRSHVTISVRTNSFIWIEDIIRIAEEQASCELYGLLKRPDEKYVTERAYNNPKFVEDIVRDVAEVLNHDDRIDAYIVESENFESIHNHSAYA | not soluble |
| MMKRARIIYNPTSGRELFKKSLPEVLQKLEQAGYEASCHATTGPGDATVAARQAADRKFDVVIAAGGDGTLNEVVNGLVGHEHRPKFGIIPVGTTNDFARAIGVPRSIEEAADIICEGKTVPLDLGRANDTYFINIAGGGRITELTYEVPSKLKTVLGQLAYYLKGIEMLPSLHPTYVEIEYDGKLLQEEITMFLITNTRSVGGFEKVAPYASINDGLFDLLVLKKGSIADLIKAATQAQRGEHINNPKVLYTQANRIKVHSPDKLMINLDGEYGGDAPMEFENIYHCLELFVPEHQEDAL | not soluble |
